Data taken from PMC4943715, “Expression of Biphenyl Synthase Genes and Formation of Phytoalexin Compounds in Three Fire Blight-Infected Pyrus communis Cultivars” (PLoS ONE, 2016).

B1: PcBIS1 (Pyrus communis) (protein)
chain: MAPLVKNHVEPPHAKILAIGTANPPNVYYQKDYPDFLFRVTKNEHRTDLREKFDRICEKSRTRKRYLYLTEEILNANPSIYTYGAPSLDVRQDMLNPEVPKLGQQAALKAIKEWGQPISKITHLIFCTASCVDMPGADFQLVKLLGLNPSVTRTMIYEAGCYAGATVLRLAKDFAENNEDARVLVVCAEITTVFFHGLTDTHLDILVGQALFADGASAVIVGANPEPEIERPLFEIVACRQTIIPNSEHGVVANIREMGFNYYLSGDVPKFVGGSVVDFLTKTFEKVDGKNKDWNSLFLSVHPGGPAIVDQVEEQLGLKEGKLRATRHVLSEYGNMGAPSVHFILDEMRNKSIGEGKATTGEGLEWGVVIGIGPGLTVETAVLRSESIPC
B2: PcBIS2 (Pyrus communis) (protein)
chain: MAPLVKNHVEPPHAKILAIGTANPPNVYYQKDYPDFLFRVTKNEHRTDLREKFDRICEKSRTRKRYLYLTEEILNANPSIYTYGAPSLDVRQDMLNPEVPKLGQQAALKAIKEWGQPISKITHLIFCTASCVDMPGADFQLVKLLGLNPSVTRTMIYEAGCYAGATVLRLAKDFAENNEDARVLVVCAEITTVFFHGLTDTHLDILVGQALFADGASAVIVGANPEPEIESPLFEIVACRQTIIPNSEHGVVANIREMGFNYYLSGEVPKFVGGNVVDFLTKTFEKVDGKNKDWNSLFFSVHPGGPAIVDQVEEQLGLKEGKLRATRHVLSEYGNMGAPSVHFILDEMRKKSIEEGKATTGEGLEWGVVIGIGPGLTVETAVLRSESIPC

Legend:
Assay in all cases: product formation, HPLC-DAD of ethyl acetate extract; Hanes plot
Type in all cases: biochemical, Pyrus communis
[1] = substrate: CC(C)(COP(=O)(O)OP(=O)(O)OC[C@H]1O[C@@H](n2cnc3c(N)ncnc32)[C@H](O)[C@@H]1OP(=O)(O)O)[C@@H](O)C(=O)NCCC(=O)NCCSC(=O)CC(=O)O; conditions: benzoyl-CoA as starter at saturation, 0.1 M potassium phosphate pH 7.0, 35°C, 5 min
Source text: (§1) product formation, HPLC-DAD of ethyl acetate extract; Hanes plot on PcBIS1

[2] = substrate: CC(C)(COP(=O)(O)OP(=O)(O)OC[C@H]1O[C@@H](n2cnc3c(N)ncnc32)[C@H](O)[C@@H]1OP(=O)(O)O)[C@@H](O)C(=O)NCCC(=O)NCCSC(=O)c1ccccc1; conditions: malonyl-CoA at saturation, 0.1 M potassium phosphate pH 7.0, 35°C, 5 min
Source text: as §1

[3] = substrate: CC(C)(COP(=O)(O)OP(=O)(O)OC[C@H]1O[C@@H](n2cnc3c(N)ncnc32)[C@H](O)[C@@H]1OP(=O)(O)O)[C@@H](O)C(=O)NCCC(=O)NCCSC(=O)c1ccccc1O; conditions: malonyl-CoA at saturation, 0.1 M potassium phosphate pH 7.0, 35°C, 5 min
Source text: as §1

[4] = substrate: CC(C)(COP(=O)(O)OP(=O)(O)OC[C@H]1O[C@@H](n2cnc3c(N)ncnc32)[C@H](O)[C@@H]1OP(=O)(O)O)[C@@H](O)C(=O)NCCC(=O)NCCSC(=O)CC(=O)O; conditions: benzoyl-CoA as starter at saturation, 0.1 M potassium phosphate pH 7.0, 35°C, 5 min; remark: listed apart in the source
Source text: (§2) product formation, HPLC-DAD of ethyl acetate extract; Hanes plot on PcBIS2

[5] = substrate: CC(C)(COP(=O)(O)OP(=O)(O)OC[C@H]1O[C@@H](n2cnc3c(N)ncnc32)[C@H](O)[C@@H]1OP(=O)(O)O)[C@@H](O)C(=O)NCCC(=O)NCCSC(=O)c1ccccc1; conditions: malonyl-CoA at saturation, 0.1 M potassium phosphate pH 7.0, 35°C, 5 min; remark: listed apart in the source
Source text: as §2

[6] = substrate: CC(C)(COP(=O)(O)OP(=O)(O)OC[C@H]1O[C@@H](n2cnc3c(N)ncnc32)[C@H](O)[C@@H]1OP(=O)(O)O)[C@@H](O)C(=O)NCCC(=O)NCCSC(=O)c1ccccc1O; conditions: malonyl-CoA at saturation, 0.1 M potassium phosphate pH 7.0, 35°C, 5 min; remark: listed apart in the source
Source text: as §2

Row | Protein | Km [1] [µM] | Km [2] [µM] | kcat [2] [s⁻¹] | kcat/Km [2] [M⁻¹ s⁻¹] | Km [3] [µM] | kcat [3] [s⁻¹] | kcat/Km [3] [M⁻¹ s⁻¹] | Km [4] [µM] | Km [5] [µM] | kcat [5] [s⁻¹] | kcat/Km [5] [M⁻¹ s⁻¹] | Km [6] [µM] | kcat [6] [s⁻¹] | kcat/Km [6] [M⁻¹ s⁻¹]
1 | B1 | 13.7 ± 2.9 | 1.1 ± 0.2 | 0.055 ± 0.005 | 50000 | 78.4 ± 4.8 | 0.77 ± 0.075 | 9820 | – | – | – | – | – | – | –
2 | B2 | – | – | – | – | – | – | – | 11.6 ± 2.2 | 0.9 ± 0.1 | 0.035 ± 0.00167 | 38900 | 95.2 ± 5.4 | 0.89 ± 0.09 | 9350
